What is called stoichiometry N is the number of molecules, sites or subunits per partner or assembly.

This experiment concerns the target recombinant ScCD8α extracellular IgSF V domain (Ser20-Met163) (small-spotted catshark (Scyliorhinus canicula)). Kind of experiment: native gel or EMSA; PAGE under non-reducing conditions of purified recombinant ScCD8α; Tris-Gly buffer pH 4.4, ice-water bath, 120 V, 2 h; band of approx. 32 kDa against approx. 16 kDa in reducing SDS-PAGE.

As for “recombinant ScCD8α extracellular IgSF V domain (Ser20-Met163) (domain or fragment)”, the stoichiometry N came to 2.
